Experiments:
GST-IFT27 [1] = target: T1, GST-IFT27 (Chlamydomonas reinhardtii …, UniProt A8HN58); test: pull-down (GST and amylose resin)
T1 chain: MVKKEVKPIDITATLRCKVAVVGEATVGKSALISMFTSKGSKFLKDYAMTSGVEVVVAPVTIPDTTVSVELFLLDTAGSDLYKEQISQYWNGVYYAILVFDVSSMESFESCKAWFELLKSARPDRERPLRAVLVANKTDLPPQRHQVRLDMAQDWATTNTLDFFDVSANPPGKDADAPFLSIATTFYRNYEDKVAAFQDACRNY

GST-IFT27 [2] = target: T2, GST-IFT27 (Chlamydomonas reinhardtii, UniProt A8HN58 1-204); test: pull-down; GST-IFT27 (~2 ug) on Glutathione Sepharose 4B beads, incubated 1 hour with MBP-IFT25 (~2 ug), MBP-IFT25 plus MBP, or MBP (2 ug); 1xHMDEK, 4 C; supernatant and pellet on SDS-PAGE, Coomassie and immunoblot; settings: both partners purified
T2 construct: IFT27, Rab-like small GTPase component of IFT complex B, Chlamydomonas reinhardtii; also called GST-tagged IFT27; source: E. coli BL21 (DE3) pLysE, pGEX-2T-IFT27, purified (Glutathione Sepharose 4B, eluted with reduced glutathione)
T2 sequence (looked up): T1 chain

binding result (GST-IFT27 [1]): binds
binding result (GST-IFT27 [2]): binds
B1: MBP-IFT25 (natural protein, Chlamydomonas reinhardtii, UniProt B8LIX8 1-189, looked up)
chain: MKDYAREENGGLVVMASCSDERFPPENMLDGKDNTFWVTTGMFPQEFVLRLESCIRVSKITTLSLNVRKLAVEKCDQDKPDQFEKVFEVELANRGDRLQTEVHQVNIRAKYLKFILLQGHGEFATVNRVSVVGGDDDGGGYDEPGGGYGSMQRQPSMGYGGGGGSAATGFAADPGNAAAGGGGGFEDEF
notes: IFT25 (Flagellar Associated Protein FAP232) of Chlamydomonas reinhardtii; cDNA of 570 nucleotides, predicted about 20 kD; the 3' end of the FAP232 gene model was predicted incorrectly, the corrected cDNA is GenBank EF593953; Details of vector construction are 'available upon request'; also called MBP-tagged IFT25; FAP232; source: E. coli BL21 (DE3) pLysE, pMAL-c2-IFT25, purified (amylose resin, …)
